Where a chain is given by its changes, count along the chain named. “And” between values parts separate entries of the source, which are not always exact repeats. Equal values may be shown once.
T1: human IL-23 (form not stated) (human, UniProt P29460 23-328)
T1 sequence 1: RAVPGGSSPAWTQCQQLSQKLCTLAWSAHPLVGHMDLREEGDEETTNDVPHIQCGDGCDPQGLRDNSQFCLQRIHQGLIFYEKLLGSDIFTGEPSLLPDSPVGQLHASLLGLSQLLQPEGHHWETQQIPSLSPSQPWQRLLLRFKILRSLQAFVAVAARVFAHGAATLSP
T1 sequence 2: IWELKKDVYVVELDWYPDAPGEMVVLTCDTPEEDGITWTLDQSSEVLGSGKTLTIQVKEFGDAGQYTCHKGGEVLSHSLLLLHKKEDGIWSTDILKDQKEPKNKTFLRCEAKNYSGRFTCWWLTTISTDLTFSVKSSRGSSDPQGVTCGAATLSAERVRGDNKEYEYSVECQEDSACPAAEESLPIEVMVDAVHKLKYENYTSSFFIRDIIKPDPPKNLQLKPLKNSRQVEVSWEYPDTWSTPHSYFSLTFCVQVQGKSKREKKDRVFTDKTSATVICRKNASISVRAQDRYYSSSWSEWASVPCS

T2: "Non-linked" human IL-23 (human p40 coexpressed in 293T cells with human p19:FLAG-tag peptide) (human, UniProt P29460 23-328)
T2 sequence 1: T1 sequence 1
T2 sequence 2: T1 sequence 2

T3: non-tagged, non-linked native human IL-23p19/p40 coexpressed in SF9 cells (eBioscience CAT No. 34-8239) (human, UniProt P29460 23-328)
T3 sequence 1: T1 sequence 1
T3 sequence 2: T1 sequence 2

B1: mouse anti-human IL-23p19 antibody 13F11 (antibody, V domains shown)
VH: EVQLQQSGPELVKPGASVKMSCKASGHTLTRYLMHWVQQKPGQGLEWIGYINPYNDGTKYNEKFKGKATLTSDKSSSTAYMELSSLTSEDSAVYYCARNWDVAYWGQGTLVTVSA
VL: DIVMTQSPATLSVTPGDRVSLSCRASQTISDYLHWYQQKSHESPRLLIKYASQSISGIPSRFSGSGSGSHFTLSINSVEPEDVGVYYCQNGHSFPFTFGSGTKLEIKR
notes: also called m13F11
B2: mouse anti-human IL-23p19 antibody 33B12 (antibody, V domains shown)
VH: QVQLQQSGAELARPGASVKLSCKASGYTFTSYSLKWVKQRTGQGLEWIGEIHPRSGNTHYNEKFKGKATLTADKSSSTAYMDLRSLTSEDSAVYFCATNWDLGYWGQGTTITVSS
VL: B1 VL with M4L, T28S, Y36F, K39R, H70D
notes: also called m33B12
B3: mouse anti-human IL-23p19 antibody 7D7 (antibody, V domains shown)
VH: QVQLQQSGAELAKPGASVKLSCKASGYTFTNYWMDWVKQRPGQGLEWIGYINPSSGYVEYNQKFKYKATLTADKTSSTAYMQLSSLTYDDSAVYYCARSPPYYYANTYWSFDVWGTGTTVTVSS
VL: DIGLTQSPASLAVSLGQRATISCRASKSVSTSGYSFMHWYQQKPGQPPKLLIYLASNLESGVPARFSGSGSGTDFILNIHPVEEEDAATYYCQHSRELPLAFGAGTKLELTP
notes: also called m7D7
B4: mouse anti-human IL-23p19 antibody 3D7 (antibody, V domains shown)
VH: QVQLQQSGPELVKPGASVKISCKASGYSFTSYYIHWVKQRPGQGLEWIGWIFPGSGNTKYNEKFKGKATLTADTSSTTAYMQLSSLTSEASAVYFCAREGLHYFGLYAMDYWGHGTSVTVSS
VL: DIQMTQTTSSLSASLGDRVTISCSASQGISNYLNWFQQKPDGTVKLLIYYTSSLHSGVPSRFSGSGSGTDYSLTISNLEPEDIATYYCQQYSKLPYTFGGGTKLEIKR
notes: also called m3D7
B5: mouse anti-human IL-23p19 antibody 49A10 (antibody, V domains shown)
VH: EVQLQQSGPELVKPGASVKISCKASGYTFTDYYMNWVKQSHGKSLEWFGDINPNNGDTSYNQKFKGKATLTVDKSSSTAYMELRSLTSEDSADYYCARPHYRNWYFDVWGTGTTVIVSS
VL: DIVLTQSPASLVVSLGQRATISCRASKSVSTSGYSFLNWYQQKPGQPPKLLIYLASNLESGVPARFSGSGSGTDFTLNIHPVEAEDATTYYCQHSRELPLTFGSGTKLEMKR
notes: also called m49A10
B6: mouse anti-human IL-23p19 antibody 8E9 (antibody, V domains shown)
VH: EVQLQQSGPELVKPGASVKMSCKASGYTFTAYLIHWVKQSHGKSLEWIGYINPNNGGTNYNQKFKDKATLTVNKSSATAYMELRSLTSEDSAVFYCSSNWDLDYWGRGTTLTVSS
VL: B1 VL with T28S, S30G, S40L, Q53R, H70Y, P80A, Y87F
B7: mouse anti-human IL-23p19 antibody 20H7 (antibody, V domains shown)
VH: QAQLQQSGGELARPGASVKLSCKASGYTFTNYGIKWVKQRTGQGLEWIGEIFPRSGQTIYNEKFKGKATLTADKSSSTAYMELRSLTFEDSAVYFCAANWDLDYWGQGTILTVSS
VL: B1 VL with V3M, T28S, Q37R, H70D, Y87F, F96Y, S100G
B8: mouse anti-human IL-23p19 antibody 17G8 (antibody, V domains shown)
VH: B7 VH with G9S, N31S, K63N, F88S
VL: B1 VL with V3M, T28S, Q37R, H70D, V85I, F96Y, S100G
B9: mouse anti-human IL-23p19 antibody 20A4 (antibody, V domains shown)
VH: B7 VH with N31S, R40G, I59Y, F88S, A98S
VL: B1 VL with T28S, Y32F, Q37R, A51V, H70D, E79D, F96Y, S100G
B10: mouse anti-human IL-23p19 antibody 2C6 (antibody, V domains shown)
VH: EVQLQQSGPELVKPGASVKMSCKASGYTFTRYLIHWVKQKPGQGLEWIGYVNPYNDGTNYNEKFRGKATLTSDKSSSTAYMELSSLTSEDSAVYYCTSNWDLNYWGQGTTLTVSS
VL: B1 VL with T28S, H34Y, H70D, Y87F
B11: mouse anti-human IL-23p19 antibody 2G12 (antibody, V domains shown)
VH: B1 VH with H27Y, L29F, R31C, Y32C, L33I, M34L, Q38K, S77R, N99R, V102E
VL: B1 VL with T28S, D31A, H70D, V85I
B12: mouse anti-human IL-23p19 antibody 18E1 (antibody, V domains shown)
VH: B10 VH with Y27N, L33V, I34M, H35N, V51I, R65K, S77T, T97V, S98H, N103D
VL: B1 VL with T28S, D31H, H34Y, H70D, V85M, F96Y, S100G
B13: mouse anti-human IL-23p19 antibody 1D6 (antibody, V domains shown)
VH: EVQLQQSGPDLVKPGASVKMSCKASGYTFTAYLIHWVKRSHGKSLDWIGYINPNDGVTSYNQKFKGKATLTVNKSSGTAYMELRSLTSEDAAVYYCTLNWDLDYWGQGTTLTVSS
VL: B1 VL with T28S, H70D, N76T, S77N, V85I
B14: mouse anti-human IL-23p19 antibody 15G2 (antibody, V domains shown)
VH: B10 VH with R31N, I34M, V51I, R65K, V93I, Y95F, N103D
VL: B1 VL with T28S, H70D, T72I, S74N, F96Y, S100G
B15: mouse anti-human IL-23p19 antibody 3C4 (antibody, V domains shown)
VH: B7 VH with A2V, N31S, T41F, S55G, Q57N, I59Y, F88S, A97T, I110T
VL: B1 VL with T28S, H70D, P80S, E105K
B16: mouse anti-human IL-23p19 antibody 16F7 (antibody, V domains shown)
VH: EVQLVESGGDLVKPGGSLKLSCAASGFIFNSYGMSWVRQTPDKRLEWVATISSGGRNTYYPDSVKGRFTISRDNAKNTLYLQMSSLKSEDTAMYYCARQGGYEGYVDVWGIGTTVTVSS
VL: DIVMTQSHRFMSTSVGDRVSITCKASQDVSSAVAWYQQKPGQSPNLLIYSASFRNTGVPDRFTGSGSGTDFTFTISGVQAEDLAVYYCQQHHSTPLTFGAGTKLELKR
B17: mouse anti-human IL-23p19 antibody 14A3 (antibody, V domains shown)
VH: EVILVESGGGFVKPGGSLKLSCAASGFTFSNYGMSWVRQTPDKGLEWVATISTGGRYIYYSDTVKGRFTISRDNAKSTLYLKMSSLRSEDTAVHFCARHEGDRYYGWYFDVWGAGTTVTVSS
VL: DIVLTQSPASLAVSLGQRATISCKASQSVDYDGESYMNWYQQKPGQPPKLLIYTSSSLASGIPARFSGSGSGTNFTLNIHPVEEEDAATYCCQQGNEDLFTFGSGTKLEIKR
B18: mouse anti-human IL-23p19 antibody 12C11 (antibody, V domains shown)
VH: EVMLVESGGGLVKPGGSLKLSCAASGFTFSNYGMSWVRQSPERGLEWVATISTGGRYTFYSDTVKGRFTISRDNARNTLYLKMSSLISEDTAVHYCARHEGDTYYGWYFDVWGAGTTVTVSS
VL: B17 VL with Q27H, G33V, E34D, Y36F, Y53F, T54A, A59E, T76I, C91Y
B19: mouse anti-human IL-23p19 antibody 7G10 (antibody, V domains shown)
VH: B1 VH with H27Y, L29F, R31S, Y32N, L33V, Q38K
VL: B1 VL with T28S, Q37R, H70D

Target: T4, "Elastikine" human IL-23 (single chain FLAG-tag:GLU-tag:human p40:elasti-linker:human p19, expressed in 293T … (human, UniProt P29460 23-328))
Assay: KinExA, solution equilibrium
Method: The equilibrium dissociation constant (Kd) for anti human IL-23 antibodies is determined using the KinExA 3000 instrument. Sapidyne Instruments Inc., Boise Id., USA KinExA uses the principle of the Kinetic Exclusion Assay method based on measuring the concentration of uncomplexed antibody in a mixture of antibody, antigen and antibody-antigen complex. The concentration of free antibody is measured by exposing the mixture to a solid-phase immobilized antigen for a very brief period of time. In practice, this is accomplished by flowing the solution phase antigen-antibody mixture past antigen-coated particles trapped in a flow cell. Data generated by the instrument are analyzed using custom software. Equilibrium constants are calculated using a mathematical theory based on the following assumptions:
98 micron PMMA particles (Sapidyne, Cat No. 440198) are coated with biotinylated rhIL-23 according to Sapidyne “Protocol for coating PMMA particles with biotinylated ligands having short or nonexistent linker arms”. To make biotinylated rhIL-23, EZ-link TFP PEO-biotin (Pierce, Cat. No. 21219) is used according to manufacturer's recommendations (Pierce bulletin 0874). Experimental procedures are done according to the KinExA 3000 manual.
KinExA experiments are performed essentially as described at Example 3 of U.S. Patent Application Publication No. 2007/0048315.

Row | Kd [nM] | Binder
1 | 0.011 | B1
2 | 0.0068 | B2
3 | 0.0027 | B3
4 | 0.00084 | B4
5 | 0.0074 | B5

Target: T1, human IL-23 (form not stated)
Assay: cell-based or functional assay

Row | Splenocyte assay IC50 (IL-17 production by mouse splenocytes) [nM] | Binder
6 | 0.034 | B6
7 | 0.033 | B7
8 | 0.018 | B8
9 | 0.024 | B9
10 | 0.037 | B10
11 | 0.106 | B11
12 | 0.092 | B12
13 | 0.027 | B13
14 | 0.095 | B14
15 | 0.014 | B15
16 | 0.155 | B16
17 | 0.053 | B17
18 | 0.079 | B18

Target: T2, "Non-linked" human IL-23 (human p40 …)
Assay: cell-based or functional assay

Row | IC50 (pM), blocking of Ba/F3 cell proliferation [pM] | Binder
19 | 3000 | B19
20 | 8 | B6
21 | 3 | B7
22 | 3 | B8
23 | 5 | B9
24 | 11 | B10
25 | 183 | B11
26 | 48 | B12
27 | 16 | B13
28 | 193 | B2
29 | 133 | B14
30 | 12 | B15
31 | 141 | B16
32 | 37 | B4
33 | 135 | B17
34 | 57 | B18

Target: T4, "Elastikine" human IL-23 (single chain …)
Assay: cell-based or functional assay

Row | IC50 (pM), blocking of Ba/F3 cell proliferation | Binder
35 | 22 pM and 18 pM | B19
36 | 4 pM and 3 pM | B2
37 | 3 pM | B4

Target: T3, non-tagged, non-linked native human …
Assay: cell-based or functional assay

Row | IC50 (pM), blocking of Ba/F3 cell proliferation [pM] | Binder
38 | 57 | B2
39 | 2 | B4

Source: US20130039916A1 (Merck Sharp & Dohme, published 2013)
